Reference: the supplement of paper PMC10567573

B1: KRT34 (parent)
chain: PTVDLNQVLNETRSQYEALVETNR

Variants of: B1
Assay: protein stability index of a GFP-peptide fusion (GPS, HEK-293T) (PSI 1-6); higher = more stable
Conditions: c terminus: a fixed tail appended
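Further: lentivirally expressed fusions sorted by FACS into six bins by GFP to DsRed ratio, PSI derived from sequencing read proportions per bin multiplied by bin number.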

Q: For PTVDLNQVLRETRSQYEALVETNR [N10R], which protein stability index is on record?
A: 3.21

Q: For PTVDLNQVLWETRSQYEALVETNR [N10W], which protein stability index is on record?
A: 3.02

Q: With PTVDLNQVLVETRSQYEALVETNR [N10V] as the variant, how does the protein stability index read?
A: 3.21

Q: Which protein stability index does the source give for PTVDLNQVLSETRSQYEALVETNR [N10S] here?
A: 3.46

Q: With PTVDLNQVLYETRSQYEALVETNR [N10Y] as the variant, how does the protein stability index read?
A: 2.91

Q: Which protein stability index does the source give for PTVDLNQVLTETRSQYEALVETNR [N10T] here?
A: 2.75

Q: For PTVDLNQVLNETRSSYEALVETNR [Q15S], which protein stability index is on record?
A: 4.38

Q: For PTVDLNQVLNETRSWYEALVETNR [Q15W], which protein stability index is on record?
A: 1.94

Q: For PTVDLNQVLNETRSYYEALVETNR [Q15Y], which protein stability index is on record?
A: 2.91

Q: For PTVDLNQVLNETRSCYEALVETNR [Q15C], which protein stability index is on record?
A: 2.94

Q: With PTVDLNQVLNETRSIYEALVETNR [Q15I] as the variant, how does the protein stability index read?
A: 2.96

Q: With PTVDLNQVLNETRSNYEALVETNR [Q15N] as the variant, how does the protein stability index read?
A: 4.02

Q: With PTVDLNQVLNETRSAYEALVETNR [Q15A] as the variant, how does the protein stability index read?
A: 4

Q: For PTVDLNQVLNETRSEYEALVETNR [Q15E], which protein stability index is on record?
A: 4.16

Q: Which protein stability index does the source give for PTVDLNQVLNETRSFYEALVETNR [Q15F] here?
A: 2.82

Q: With PTVDLNQVLNETRSGYEALVETNR [Q15G] as the variant, how does the protein stability index read?
A: 4.19

Q: With PTVDLNQVLNETRSKYEALVETNR [Q15K] as the variant, how does the protein stability index read?
A: 3.89

Q: With PTVDLNQVLNETRSDYEALVETNR [Q15D] as the variant, how does the protein stability index read?
A: 5.05

Q: For PTVDLNQVLNETRSLYEALVETNR [Q15L], which protein stability index is on record?
A: 2.25

Q: Which protein stability index does the source give for PTVDLNQVLNETRSHYEALVETNR [Q15H] here?
A: 3.78

Q: For PTVDLNQVLNETRSPYEALVETNR [Q15P], which protein stability index is on record?
A: 4.34

Q: With PTVDLNQVLNETRSMYEALVETNR [Q15M] as the variant, how does the protein stability index read?
A: 2.35

Q: With PTVDLNQVLNETRSVYEALVETNR [Q15V] as the variant, how does the protein stability index read?
A: 3.19

Q: For PTVDLNQVLNETRSRYEALVETNR [Q15R], which protein stability index is on record?
A: 4.16

Q: With PTVDLNQVLNETRHQYEALVETNR [S14H] as the variant, how does the protein stability index read?
A: 3.32

Q: With PTVDLNQVLNETRWQYEALVETNR [S14W] as the variant, how does the protein stability index read?
A: 2.74

Q: With PTVDLNQVLNETRKQYEALVETNR [S14K] as the variant, how does the protein stability index read?
A: 2.47

Q: Which protein stability index does the source give for PTVDLNQVLNETRIQYEALVETNR [S14I] here?
A: 2.44

Q: Which protein stability index does the source give for PTVDLNQVLNETRAQYEALVETNR [S14A] here?
A: 2.09

Q: Which protein stability index does the source give for PTVDLNQVLNETRLQYEALVETNR [S14L] here?
A: 2.12

Q: With PTVDLNQVLNETRRQYEALVETNR [S14R] as the variant, how does the protein stability index read?
A: 2.15

Q: For PTVDLNQVLNETRFQYEALVETNR [S14F], which protein stability index is on record?
A: 3.3

Q: Which protein stability index does the source give for PTVDLNQVLNETRGQYEALVETNR [S14G] here?
A: 3.56

Q: With PTVDLNQVLNETRMQYEALVETNR [S14M] as the variant, how does the protein stability index read?
A: 1.65

Q: With PTVDLNQVLNETRQQYEALVETNR [S14Q] as the variant, how does the protein stability index read?
A: 2.34

Q: Which protein stability index does the source give for PTVDLNQVLNETREQYEALVETNR [S14E] here?
A: 2.23

Q: For PTVDLNQVLNETRVQYEALVETNR [S14V], which protein stability index is on record?
A: 2.82

Q: With PTVDLNQVLNETRYQYEALVETNR [S14Y] as the variant, how does the protein stability index read?
A: 3.33

Q: For PTVDLNQVLNETRCQYEALVETNR [S14C], which protein stability index is on record?
A: 2.25

Q: For PTVDLNQVLNETRPQYEALVETNR [S14P], which protein stability index is on record?
A: 4.1

Q: With PTVDLNQVLNETRTQYEALVETNR [S14T] as the variant, how does the protein stability index read?
A: 2.96

Q: For PTVDLNQVLNETRDQYEALVETNR [S14D], which protein stability index is on record?
A: 2.87

Q: Which protein stability index does the source give for PTVDLNQVLNETESQYEALVETNR [R13E] here?
A: 5.07

Q: For PTVDLNQVLNETLSQYEALVETNR [R13L], which protein stability index is on record?
A: 3.34

Q: With PTVDLNQVLNETDSQYEALVETNR [R13D] as the variant, how does the protein stability index read?
A: 5.18

Q: For PTVDLNQVLNETGSQYEALVETNR [R13G], which protein stability index is on record?
A: 4.52

Q: For PTVDLNQVLNETASQYEALVETNR [R13A], which protein stability index is on record?
A: 3.85

Q: With PTVDLNQVLNETQSQYEALVETNR [R13Q] as the variant, how does the protein stability index read?
A: 3.97

Q: With PTVDLNQVLNETNSQYEALVETNR [R13N] as the variant, how does the protein stability index read?
A: 5.01

Q: For PTVDLNQVLNETWSQYEALVETNR [R13W], which protein stability index is on record?
A: 3.71

Q: Which protein stability index does the source give for PTVDLNQVLNETCSQYEALVETNR [R13C] here?
A: 3.57

Q: Which protein stability index does the source give for PTVDLNQVLNETKSQYEALVETNR [R13K] here?
A: 3.31

Q: With PTVDLNQVLNETYSQYEALVETNR [R13Y] as the variant, how does the protein stability index read?
A: 3.64

Q: Which protein stability index does the source give for PTVDLNQVLNETISQYEALVETNR [R13I] here?
A: 2.83

Q: With PTVDLNQVLNETVSQYEALVETNR [R13V] as the variant, how does the protein stability index read?
A: 3.42

Q: For PTVDLNQVLNETFSQYEALVETNR [R13F], which protein stability index is on record?
A: 3.07

Q: Which protein stability index does the source give for PTVDLNQVLNETPSQYEALVETNR [R13P] here?
A: 4.79

Q: With PTVDLNQVLNETSSQYEALVETNR [R13S] as the variant, how does the protein stability index read?
A: 4.67

Q: For PTVDLNQVLNETTSQYEALVETNR [R13T], which protein stability index is on record?
A: 4.27

Q: With PTVDLNQVLNETHSQYEALVETNR [R13H] as the variant, how does the protein stability index read?
A: 3.46

Q: For PTVDLNQVLNEERSQYEALVETNR [T12E], which protein stability index is on record?
A: 4.27

Q: With PTVDLNQVLNERRSQYEALVETNR [T12R] as the variant, how does the protein stability index read?
A: 4.28

Q: Which protein stability index does the source give for PTVDLNQVLNECRSQYEALVETNR [T12C] here?
A: 3.49

Q: With PTVDLNQVLNEIRSQYEALVETNR [T12I] as the variant, how does the protein stability index read?
A: 1.84

Q: With PTVDLNQVLNESRSQYEALVETNR [T12S] as the variant, how does the protein stability index read?
A: 3.54

Q: For PTVDLNQVLNEARSQYEALVETNR [T12A], which protein stability index is on record?
A: 1.8

Q: With PTVDLNQVLNEKRSQYEALVETNR [T12K] as the variant, how does the protein stability index read?
A: 4

Q: For PTVDLNQVLNEPRSQYEALVETNR [T12P], which protein stability index is on record?
A: 4.12

Q: With PTVDLNQVLNEDRSQYEALVETNR [T12D] as the variant, how does the protein stability index read?
A: 5.22

Q: With PTVDLNQVLNEQRSQYEALVETNR [T12Q] as the variant, how does the protein stability index read?
A: 2.21

Q: For PTVDLNQVLNEHRSQYEALVETNR [T12H], which protein stability index is on record?
A: 1.75

Q: For PTVDLNQVLNEVRSQYEALVETNR [T12V], which protein stability index is on record?
A: 3.04

Q: Which protein stability index does the source give for PTVDLNQVLNENRSQYEALVETNR [T12N] here?
A: 4.03

Q: Which protein stability index does the source give for PTVDLNQVLNEFRSQYEALVETNR [T12F] here?
A: 2.4

Q: With PTVDLNQVLNEGRSQYEALVETNR [T12G] as the variant, how does the protein stability index read?
A: 4.39

Q: Which protein stability index does the source give for PTVDLNQVLNVTRSQYEALVETNR [E11V] here?
A: 4.44

Q: For PTVDLNQVLNMTRSQYEALVETNR [E11M], which protein stability index is on record?
A: 3.95

Q: With PTVDLNQVLNPTRSQYEALVETNR [E11P] as the variant, how does the protein stability index read?
A: 4.1

Q: For PTVDLNQVLNDTRSQYEALVETNR [E11D], which protein stability index is on record?
A: 3.81

Q: Which protein stability index does the source give for PTVDLNQVLNATRSQYEALVETNR [E11A] here?
A: 4.06

Q: Which protein stability index does the source give for PTVDLNQVLNWTRSQYEALVETNR [E11W] here?
A: 3.15

Q: With PTVDLNQVLNQTRSQYEALVETNR [E11Q] as the variant, how does the protein stability index read?
A: 3.93

Q: Which protein stability index does the source give for PTVDLNQVLNTTRSQYEALVETNR [E11T] here?
A: 3.78

Q: For PTVDLNQVLNCTRSQYEALVETNR [E11C], which protein stability index is on record?
A: 3.91

Q: For PTVDLNQVLNFTRSQYEALVETNR [E11F], which protein stability index is on record?
A: 3.22

Q: With PTVDLNQVLNITRSQYEALVETNR [E11I] as the variant, how does the protein stability index read?
A: 3.42

Q: With PTVDLNQVLNSTRSQYEALVETNR [E11S] as the variant, how does the protein stability index read?
A: 3.85

Q: For PTVDLNQVLNLTRSQYEALVETNR [E11L], which protein stability index is on record?
A: 3.36

Q: With PTVDLNQVLNHTRSQYEALVETNR [E11H] as the variant, how does the protein stability index read?
A: 4.18

Q: With PTVDLNQVLNKTRSQYEALVETNR [E11K] as the variant, how does the protein stability index read?
A: 3.79

Q: Which protein stability index does the source give for PTVDLNQVLNNTRSQYEALVETNR [E11N] here?
A: 3.69

Q: For PTVDLNQVLNGTRSQYEALVETNR [E11G], which protein stability index is on record?
A: 4.05

Q: With PTVDLNQVLNYTRSQYEALVETNR [E11Y] as the variant, how does the protein stability index read?
A: 3.72

Q: Which protein stability index does the source give for PTVDLNQVLNRTRSQYEALVETNR [E11R] here?
A: 4.03
